Data on 1 substance can be found in patent publication US20120321668A1.

Where only a bound is given, the exact number is not on record here.

The target of assay [1] is TLR2 TMD peptide labelled with Rho (TLR2-Rho). The assay is described as follows: FRET, gp41 TMD-NBD constant at 0.4 µM and TLR2-Rho added at 0.025-0.8 µM, 100 µM LUVs.
Assay [2] addresses CD3 molecules of the CD3/TCR complex on mouse T cells (mouse) (UniProt A2KF29). Description: confocal fluorescence microscopy, NBD-peptide and labelled anti-CD3 antibody on mouse T cells.

In assay [1], “gp41 TMD conjugated to NBD (gp41 transmembrane domain peptide, NBD-labelled)” yielded a percent of energy transfer (FRET) above 60%. In assay [2], the co-localization percentage was 58.8%.
